# Laboratory results from patent US20130336893A1 (Sanofi, published 2013).
# *1 amine or outer side, *2 acyl side, *3 side chain or, on linkers, in order; H or OH if unused. Where no end group is shown, it is not given here. [ ]: non-standard residue; d: D form. Cysteamide = C(CS[*:3])N[*:1]
# Experiments:
# human GLP-1 receptor = human GLP-1 receptor (human, UniProt P43220 24-463); assay: cell-based or functional assay
# human glucagon receptor = human glucagon receptor (human, UniProt P47871 26-477); assay: cell-based or functional assay
# Sequence of human glucagon receptor (P47871 26-477): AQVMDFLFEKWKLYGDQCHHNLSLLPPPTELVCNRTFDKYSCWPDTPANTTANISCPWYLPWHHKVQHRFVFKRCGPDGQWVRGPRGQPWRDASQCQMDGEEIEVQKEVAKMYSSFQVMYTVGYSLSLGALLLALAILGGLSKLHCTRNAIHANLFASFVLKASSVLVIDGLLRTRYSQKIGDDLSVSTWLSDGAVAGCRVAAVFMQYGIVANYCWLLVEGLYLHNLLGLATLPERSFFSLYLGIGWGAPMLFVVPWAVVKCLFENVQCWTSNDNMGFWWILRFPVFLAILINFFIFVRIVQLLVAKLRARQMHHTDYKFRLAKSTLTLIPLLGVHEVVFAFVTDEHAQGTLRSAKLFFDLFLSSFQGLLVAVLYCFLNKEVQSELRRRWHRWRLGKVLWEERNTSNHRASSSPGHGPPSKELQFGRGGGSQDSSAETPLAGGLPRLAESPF
Binder,EC50 hGLP-1R (cAMP formation) (human GLP-1 receptor) [nM],EC50 hGlucagonR (cAMP formation) (human glucagon receptor) [nM]
H[dS]QGTFTSDLSKQMDSRRAHDFIEWLKNGGPSSGAPPPS-NH2 (N-terminus assumed; SMILES CC[C@H](C)[C@H](NC(=O)[C@H](Cc1ccccc1)NC(=O)[C@H](CC(=O)O)NC(=O)[C@H](Cc1c[nH]cn1)NC(=O)[C@H](C)NC(=O)[C@H](CCCNC(=N)N)NC(=O)[C@H](CCCNC(=N)N)NC(=O)[C@H](CO)NC(=O)[C@H](CC(=O)O)NC(=O)[C@H](CCSC)NC(=O)[C@H](CCC(N)=O)NC(=O)[C@H](CCCCN)NC(=O)[C@H](CO)NC(=O)[C@H](CC(C)C)NC(=O)[C@H](CC(=O)O)NC(=O)[C@H](CO)NC(=O)[C@@H](NC(=O)[C@H](Cc1ccccc1)NC(=O)[C@@H](NC(=O)CNC(=O)[C@H](CCC(N)=O)NC(=O)[C@@H](CO)NC(=O)[C@@H](N)Cc1c[nH]cn1)[C@@H](C)O)[C@@H](C)O)C(=O)N[C@@H](CCC(=O)O)C(=O)N[C@@H](Cc1c[nH]c2ccccc12)C(=O)N[C@@H](CC(C)C)C(=O)N[C@@H](CCCCN)C(=O)N[C@@H](CC(N)=O)C(=O)NCC(=O)NCC(=O)N1CCC[C@H]1C(=O)N[C@@H](CO)C(=O)N[C@@H](CO)C(=O)NCC(=O)N[C@@H](C)C(=O)N1CCC[C@H]1C(=O)N1CCC[C@H]1C(=O)N1CCC[C@H]1C(=O)N[C@@H](CO)C(N)=O) [SEQ ID NO: (29)],0.028,0.149
HSEGTFTSDLSKQMDSRRAQDFIEWLKNGGPSSGAPPPS-NH2 [SEQ ID NO: (10)],0.0313,16.7
H[dS]QGTFTSDLSKQMDSRRAKDFIEWLKNGGPSSGAPPPS-NH2 (N-terminus assumed; SMILES CC[C@H](C)[C@H](NC(=O)[C@H](Cc1ccccc1)NC(=O)[C@H](CC(=O)O)NC(=O)[C@H](CCCCN)NC(=O)[C@H](C)NC(=O)[C@H](CCCNC(=N)N)NC(=O)[C@H](CCCNC(=N)N)NC(=O)[C@H](CO)NC(=O)[C@H](CC(=O)O)NC(=O)[C@H](CCSC)NC(=O)[C@H](CCC(N)=O)NC(=O)[C@H](CCCCN)NC(=O)[C@H](CO)NC(=O)[C@H](CC(C)C)NC(=O)[C@H](CC(=O)O)NC(=O)[C@H](CO)NC(=O)[C@@H](NC(=O)[C@H](Cc1ccccc1)NC(=O)[C@@H](NC(=O)CNC(=O)[C@H](CCC(N)=O)NC(=O)[C@@H](CO)NC(=O)[C@@H](N)Cc1c[nH]cn1)[C@@H](C)O)[C@@H](C)O)C(=O)N[C@@H](CCC(=O)O)C(=O)N[C@@H](Cc1c[nH]c2ccccc12)C(=O)N[C@@H](CC(C)C)C(=O)N[C@@H](CCCCN)C(=O)N[C@@H](CC(N)=O)C(=O)NCC(=O)NCC(=O)N1CCC[C@H]1C(=O)N[C@@H](CO)C(=O)N[C@@H](CO)C(=O)NCC(=O)N[C@@H](C)C(=O)N1CCC[C@H]1C(=O)N1CCC[C@H]1C(=O)N1CCC[C@H]1C(=O)N[C@@H](CO)C(N)=O) [SEQ ID NO: (30)],0.0505,1.05
H[dS]QGTFTSDLSKQMDSRRARDFIEWLKNGGPSSGAPPPS-NH2 (N-terminus assumed; SMILES CC[C@H](C)[C@H](NC(=O)[C@H](Cc1ccccc1)NC(=O)[C@H](CC(=O)O)NC(=O)[C@H](CCCNC(=N)N)NC(=O)[C@H](C)NC(=O)[C@H](CCCNC(=N)N)NC(=O)[C@H](CCCNC(=N)N)NC(=O)[C@H](CO)NC(=O)[C@H](CC(=O)O)NC(=O)[C@H](CCSC)NC(=O)[C@H](CCC(N)=O)NC(=O)[C@H](CCCCN)NC(=O)[C@H](CO)NC(=O)[C@H](CC(C)C)NC(=O)[C@H](CC(=O)O)NC(=O)[C@H](CO)NC(=O)[C@@H](NC(=O)[C@H](Cc1ccccc1)NC(=O)[C@@H](NC(=O)CNC(=O)[C@H](CCC(N)=O)NC(=O)[C@@H](CO)NC(=O)[C@@H](N)Cc1c[nH]cn1)[C@@H](C)O)[C@@H](C)O)C(=O)N[C@@H](CCC(=O)O)C(=O)N[C@@H](Cc1c[nH]c2ccccc12)C(=O)N[C@@H](CC(C)C)C(=O)N[C@@H](CCCCN)C(=O)N[C@@H](CC(N)=O)C(=O)NCC(=O)NCC(=O)N1CCC[C@H]1C(=O)N[C@@H](CO)C(=O)N[C@@H](CO)C(=O)NCC(=O)N[C@@H](C)C(=O)N1CCC[C@H]1C(=O)N1CCC[C@H]1C(=O)N1CCC[C@H]1C(=O)N[C@@H](CO)C(N)=O) [SEQ ID NO: (31)],0.0109,0.132
H[dS]QGTFTSDLSKQMDSRRAQDFIEWLKKGGPSSGEPPPS-NH2 (N-terminus assumed; SMILES CC[C@H](C)[C@H](NC(=O)[C@H](Cc1ccccc1)NC(=O)[C@H](CC(=O)O)NC(=O)[C@H](CCC(N)=O)NC(=O)[C@H](C)NC(=O)[C@H](CCCNC(=N)N)NC(=O)[C@H](CCCNC(=N)N)NC(=O)[C@H](CO)NC(=O)[C@H](CC(=O)O)NC(=O)[C@H](CCSC)NC(=O)[C@H](CCC(N)=O)NC(=O)[C@H](CCCCN)NC(=O)[C@H](CO)NC(=O)[C@H](CC(C)C)NC(=O)[C@H](CC(=O)O)NC(=O)[C@H](CO)NC(=O)[C@@H](NC(=O)[C@H](Cc1ccccc1)NC(=O)[C@@H](NC(=O)CNC(=O)[C@H](CCC(N)=O)NC(=O)[C@@H](CO)NC(=O)[C@@H](N)Cc1c[nH]cn1)[C@@H](C)O)[C@@H](C)O)C(=O)N[C@@H](CCC(=O)O)C(=O)N[C@@H](Cc1c[nH]c2ccccc12)C(=O)N[C@@H](CC(C)C)C(=O)N[C@@H](CCCCN)C(=O)N[C@@H](CCCCN)C(=O)NCC(=O)NCC(=O)N1CCC[C@H]1C(=O)N[C@@H](CO)C(=O)N[C@@H](CO)C(=O)NCC(=O)N[C@@H](CCC(=O)O)C(=O)N1CCC[C@H]1C(=O)N1CCC[C@H]1C(=O)N1CCC[C@H]1C(=O)N[C@@H](CO)C(N)=O) [SEQ ID NO: (33)],0.138,0.347
H[dS]QGTFTSDLSKQMDSRRAQLFIEWLKNGGPSSGAPPPS-NH2 (N-terminus assumed; SMILES CC[C@H](C)[C@H](NC(=O)[C@H](Cc1ccccc1)NC(=O)[C@H](CC(C)C)NC(=O)[C@H](CCC(N)=O)NC(=O)[C@H](C)NC(=O)[C@H](CCCNC(=N)N)NC(=O)[C@H](CCCNC(=N)N)NC(=O)[C@H](CO)NC(=O)[C@H](CC(=O)O)NC(=O)[C@H](CCSC)NC(=O)[C@H](CCC(N)=O)NC(=O)[C@H](CCCCN)NC(=O)[C@H](CO)NC(=O)[C@H](CC(C)C)NC(=O)[C@H](CC(=O)O)NC(=O)[C@H](CO)NC(=O)[C@@H](NC(=O)[C@H](Cc1ccccc1)NC(=O)[C@@H](NC(=O)CNC(=O)[C@H](CCC(N)=O)NC(=O)[C@@H](CO)NC(=O)[C@@H](N)Cc1c[nH]cn1)[C@@H](C)O)[C@@H](C)O)C(=O)N[C@@H](CCC(=O)O)C(=O)N[C@@H](Cc1c[nH]c2ccccc12)C(=O)N[C@@H](CC(C)C)C(=O)N[C@@H](CCCCN)C(=O)N[C@@H](CC(N)=O)C(=O)NCC(=O)NCC(=O)N1CCC[C@H]1C(=O)N[C@@H](CO)C(=O)N[C@@H](CO)C(=O)NCC(=O)N[C@@H](C)C(=O)N1CCC[C@H]1C(=O)N1CCC[C@H]1C(=O)N1CCC[C@H]1C(=O)N[C@@H](CO)C(N)=O) [SEQ ID NO: (35)],0.0894,0.043
HSQGTFTSDLSKQMDSRRAQDFIEWLKNGGPSSGAPPPS-Cysteamide [SEQ ID NO: (8)],0.0203,0.0351
HSQGTFTSDLSKQMDSRRAQDFIEWLKNGGPSSGAPPPS-{NH‑CH2‑CH2‑S‑tBu} [SEQ ID NO: (36)],0.0189,0.0458
H[dS]QGTFTSDLSKQMDSRRAQEFIEWLKNGGPSSGAPPPS-NH2 (N-terminus assumed; SMILES CC[C@H](C)[C@H](NC(=O)[C@H](Cc1ccccc1)NC(=O)[C@H](CCC(=O)O)NC(=O)[C@H](CCC(N)=O)NC(=O)[C@H](C)NC(=O)[C@H](CCCNC(=N)N)NC(=O)[C@H](CCCNC(=N)N)NC(=O)[C@H](CO)NC(=O)[C@H](CC(=O)O)NC(=O)[C@H](CCSC)NC(=O)[C@H](CCC(N)=O)NC(=O)[C@H](CCCCN)NC(=O)[C@H](CO)NC(=O)[C@H](CC(C)C)NC(=O)[C@H](CC(=O)O)NC(=O)[C@H](CO)NC(=O)[C@@H](NC(=O)[C@H](Cc1ccccc1)NC(=O)[C@@H](NC(=O)CNC(=O)[C@H](CCC(N)=O)NC(=O)[C@@H](CO)NC(=O)[C@@H](N)Cc1c[nH]cn1)[C@@H](C)O)[C@@H](C)O)C(=O)N[C@@H](CCC(=O)O)C(=O)N[C@@H](Cc1c[nH]c2ccccc12)C(=O)N[C@@H](CC(C)C)C(=O)N[C@@H](CCCCN)C(=O)N[C@@H](CC(N)=O)C(=O)NCC(=O)NCC(=O)N1CCC[C@H]1C(=O)N[C@@H](CO)C(=O)N[C@@H](CO)C(=O)NCC(=O)N[C@@H](C)C(=O)N1CCC[C@H]1C(=O)N1CCC[C@H]1C(=O)N1CCC[C@H]1C(=O)N[C@@H](CO)C(N)=O) [SEQ ID NO: (37)],0.0759,0.0582
HSQGTFTSDLSKQMDSRRAQDFIEWLKNGGPSSGAPPPS-{NH‑(CH2)5‑OH} [SEQ ID NO: (50)],0.014,0.0225
HGQGTFTSDLSKQMDSRRAQDFIEWLKNGGPSSGAPPPS-NH2 [SEQ ID NO: (11)],0.0254,2.32
HAQGTFTSDLSKQMDSRRAQDFIEWLKNGGPSSGAPPPS-NH2 [SEQ ID NO: (39)],0.0046,0.683
H[dA]QGTFTSDLSKQMDSRRAQDFIEWLKNGGPSSGAPPPS-NH2 [SEQ ID NO: (40)],0.0081,1.18
